± gives the uncertainty stated by the source.
Assay: self-splicing fitness, log relative to wild type (ln ratio); higher = more splicing; Tetrahymena group I intron in knt gene, E. coli kanamycin selection, DiMSum; sequences stand for … in CUCUCU…GGAGGGAAAAGUUAUCAGGCAUGCACCUGGUAGCUAGUCUUUAAACCAAUAGAUUGCAUCGGUUUAAAAGGCAAGACCGUCAAAUUGCGGGAAAGGGGUCAACAGCCGUUCAGUACCAAGUCUCAGGGGAAACUUUGAGAUGGCCUUGCAAAGGGUAUGGUAAUAAGCUGACGGACAUGGUCCUAACCACGCAGCCAAGUCCUAAGUCAACAGAUCUUCUGUUGAUAUGGAUGCAGUUCACAGACUAAAUGUCGGUCGGGGAAGAUGUAUUCUUCUCAUAAGAUAUAGUCGGACCUCUCCUUAAUGGGAGCUAGCGGAUGAAGUGAUGCAACACUGGAGCCGCUGGGAACUAAUUUGUAUGCGAAAGUAUAUUGAUUAGUUUUGGAGUACUCGUGGUCG
Outline: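 Six replicate transformations of E. coli BL21(DE3) with a pET-22b(+) library were grown overnight at 37°C or 30°C. The library randomised all eight P1ex-region intron nucleotides, the intron lying in the knt kanamycin-resistance gene, and plates were LB agar with or without 25 μg/mL kanamycin plus 100 μg/mL carbenicillin, 50 μM IPTG and 0.2% rhamnose. Pooled colonies were amplicon-sequenced on an Illumina HiSeq 2500, and fitness is the DiMSum error-weighted combination of wild-type-normalised replicate fold changes, kanamycin versus none.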

Sequence	self-splicing fitness (ln) (30 °C)	self-splicing fitness (ln) (37 °C)
ACUAAGCAAUAUUACGAGAG	-3.17 ± 0.13	-2.52 ± 0.15
AACAAGCAAUAUUACGCUAU	-2.25 ± 0.075	-1.52 ± 0.074
UCUAAGCAAUAUUACGGCGG	-0.251 ± 0.076	-0.431 ± 0.096
GUGUAGCAAUAUUACGAAAC	-3.2 ± 0.41	-1.89 ± 0.34
AGCAAGCAAUAUUACGAACC	-0.794 ± 0.12	0.286 ± 0.2
ACUUAGCAAUAUUACGGCUU	-0.359 ± 0.14	-0.614 ± 0.19
UAACAGCAAUAUUACGCAAG	-2.08 ± 0.078	-2.23 ± 0.074
UCCAAGCAAUAUUACGUCCG	-2.76 ± 0.21	-1.81 ± 0.19
GUGCAGCAAUAUUACGUGCA	-3.19 ± 0.15	-2.41 ± 0.17
UCCUAGCAAUAUUACGACUG	-3.17 ± 0.27	-3.52 ± 0.42
GCAGAGCAAUAUUACGAUGU	-4.4 ± 0.34	-2.42 ± 0.19
AGUCAGCAAUAUUACGAACU	-0.853 ± 0.089	0.15 ± 0.11
UGGAAGCAAUAUUACGCGAA	-1.68 ± 0.16	-1.03 ± 0.15
UCCUAGCAAUAUUACGAAGA	-1.13 ± 0.12	0.123 ± 0.12
CUUGAGCAAUAUUACGUACG	-1.44 ± 0.097	-0.683 ± 0.1
GAACAGCAAUAUUACGGUCA	-0.702 ± 0.062	-1.05 ± 0.066
ACGCAGCAAUAUUACGAUCG	-0.15 ± 0.049	0.252 ± 0.071

Sequence	self-splicing fitness (ln) (30 °C)	self-splicing fitness (ln) (37 °C)
AAGAAGCAAUAUUACGGUUA	-0.783 ± 0.15	-0.983 ± 0.12
UAAGAGCAAUAUUACGUGAU	-4.21 ± 0.34	-2.43 ± 0.35
CGAUAGCAAUAUUACGUGAC	-2.87 ± 0.18	-2.36 ± 0.23
ACCGAGCAAUAUUACGACGG	-2.24 ± 0.2	-0.893 ± 0.21
CUUUAGCAAUAUUACGCGAU	-3.05 ± 0.24	-0.751 ± 0.17
CAUGAGCAAUAUUACGUUCU	-3.59 ± 0.27	-3.11 ± 0.26
AAUGAGCAAUAUUACGGUUU	-2.13 ± 0.097	-0.543 ± 0.11
CAACAGCAAUAUUACGAGGA	-3.65 ± 0.25	-0.828 ± 0.1
CUGAAGCAAUAUUACGCUUG	-2.33 ± 0.13	-1.79 ± 0.14
GGACAGCAAUAUUACGAGUU	-3.64 ± 0.19	-1.24 ± 0.11
GUGUAGCAAUAUUACGGCGA	-1.18 ± 0.089	-0.268 ± 0.098
GGUGAGCAAUAUUACGACCU	-2.12 ± 0.26	-2.52 ± 0.49
CCCGAGCAAUAUUACGGACU	-2.57 ± 0.11	-2.19 ± 0.2
UAGUAGCAAUAUUACGCUAU	-1.34 ± 0.21	-1.16 ± 0.25
UCCAAGCAAUAUUACGGUCU	-2.33 ± 0.1	-0.343 ± 0.097
GCUCAGCAAUAUUACGCGCA	-1.77 ± 0.13	-0.106 ± 0.13
